This data set deals with the molecule itself. In words: SEC; analytical SEC, Agilent Bio SEC-3 HPLC column, TNT buffer (25 mM Tris pH 8.0, 150 mM NaCl, 1 mM TCEP), 25 °C; proteins diluted to a range of concentrations (given in Figure 3a) and incubated at least 1 h at room temperature; dimer against monomer. Background: SEC sorts molecules by how far they enter the pores of the column.

B1: wild-type FICD, structured luminal region (residues 104-445) (enzyme, human, UniProt Q9BVA6 104-445, looked up)
chain: LEARAALNQALEMKRQGKREKAQKLFMHALKMDPDFVDALTEFGIFSEEDKDIIQADYLYTRALTISPYHEKALVNRDRTLPLVEEIDQRYFSIIDSKVKKVMSIPKGNSALRRVMEETYYHHIYHTVAIEGNTLTLSEIRHILETRYAVPGKSLEEQNEVIGMHAAMKYINTTLVSRIGSVTISDVLEIHRRVLGYVDPVEAGRFRTTQVLVGHHIPPHPQDVEKQMQEFVQWLNSEEAMNLHPVEFAALAHYKLVYIHPFIDGNGRTSRLLMNLILMQAGYPPITIRKEQRSDYYHVLEAANEGDVRPFIRFIAKCTETTLDTLLFATTEYSVALPEAQP
notes: human FICD (Fic domain-containing protein), structured luminal region, residues 104-445; purification as in Perera et al., 2019 and 2021; also called FICD^WT; WT; source: E. coli T7 Express lysY/Iq (NEB), purified (Ni-NTA, Ulp1 cleavage, anion exchange, gel filtration); not shown: His6, N-terminal, cleaved; SUMO, N-terminal, cleaved
Consider B1, for which the “stoichiometry N” value was 2.

B2: FICD^R371S, structured luminal region (residues 104-445) (enzyme, human, UniProt Q9BVA6 104-445, looked up)
chain: LEARAALNQALEMKRQGKREKAQKLFMHALKMDPDFVDALTEFGIFSEEDKDIIQADYLYTRALTISPYHEKALVNRDRTLPLVEEIDQRYFSIIDSKVKKVMSIPKGNSALRRVMEETYYHHIYHTVAIEGNTLTLSEIRHILETRYAVPGKSLEEQNEVIGMHAAMKYINTTLVSRIGSVTISDVLEIHRRVLGYVDPVEAGRFRTTQVLVGHHIPPHPQDVEKQMQEFVQWLNSEEAMNLHPVEFAALAHYKLVYIHPFIDGNGSTSRLLMNLILMQAGYPPITIRKEQRSDYYHVLEAANEGDVRPFIRFIAKCTETTLDTLLFATTEYSVALPEAQP
notes: human FICD, structured luminal region, residues 104-445, with the patient variant p.(Arg371Ser) (NM_007076.2:c.1113G>C); Rare human variant found in patients; also called Arg371Ser mutant FICD; p.(Arg371Ser); source: E. coli T7 Express lysY/Iq (NEB), purified (Ni-NTA, Ulp1 cleavage, anion exchange, gel filtration); not shown: His6, N-terminal, cleaved; SUMO, N-terminal, cleaved
B2: the “stoichiometry N” value came out at 2.

In general, stoichiometry N refers to a count of units in the complex or per binding partner.

Source of the values: doi:10.1101/2022.05.14.22275020, “A homozygous p.(Arg371Ser) mutation in FICD de-regulates AMPylation of the human endoplasmic reticulum chaperone BiP causing infancy-onset diabetes and severe neurodevelopmental delay” (medRxiv, 2022).
